The record followed here is PMC9652331.

Common to all, as to experiment: EMSA
Background: In EMSA bound probe runs differently from free probe, usually more slowly.

In series [1] the target is HAKAI;WTAP;VIRMA;ZC3H13 (1106-1668) (Homo sapiens;Homo sapiens;Homo sapiens;Homo sapiens) (UniProt Q75N03+Q15007+Q69YN4+Q5T200). The note with it: HWVZ; EMSA: 5 nM FAM-RNA, 20 mM HEPES pH 7.5, 100 mM KCl, 10% glycerol, 1 mM DTT, 25 C, 20 min; 8% native PAGE in 1x TBE at 4 C; Kd from loss of free RNA, Hill fit ….
The target in series [2] is WTAP;VIRMA (Homo sapiens;Homo sapiens) (UniProt Q15007+Q69YN4). The note with it: WV; EMSA: 5 nM FAM-RNA, 20 mM HEPES pH 7.5, 100 mM KCl, 10% glycerol, 1 mM DTT, 25 C, 20 min; 8% native PAGE in 1x TBE at 4 C; Kd from loss of free RNA, Hill fit ….
For series [3], the target named is WTAP;VIRMA;ZC3H13 (1106-1668) (Homo sapiens;Homo sapiens;Homo sapiens) (UniProt Q15007+Q69YN4+Q5T200). Conditions: WVZ (no HAKAI); EMSA: 5 nM FAM-RNA, 20 mM HEPES pH 7.5, 100 mM KCl, 10% glycerol, 1 mM DTT, 25 C, 20 min; 8% native PAGE in 1x TBE at 4 C; Kd from loss of free RNA, Hill fit ….
The target in series [4] is HAKAI;WTAP;VIRMA (Homo sapiens;Homo sapiens;Homo sapiens) (UniProt Q75N03+Q15007+Q69YN4). Conditions: HWV (no ZC3H13); EMSA: 5 nM FAM-RNA, 20 mM HEPES pH 7.5, 100 mM KCl, 10% glycerol, 1 mM DTT, 25 C, 20 min; 8% native PAGE in 1x TBE at 4 C; Kd from loss of free RNA, Hill fit ….
Chain of HAKAI;WTAP;VIRMA (Homo sapiens;Homo sapiens;Homo sapiens) (Q75N03 whole entry, chain 1 of 3): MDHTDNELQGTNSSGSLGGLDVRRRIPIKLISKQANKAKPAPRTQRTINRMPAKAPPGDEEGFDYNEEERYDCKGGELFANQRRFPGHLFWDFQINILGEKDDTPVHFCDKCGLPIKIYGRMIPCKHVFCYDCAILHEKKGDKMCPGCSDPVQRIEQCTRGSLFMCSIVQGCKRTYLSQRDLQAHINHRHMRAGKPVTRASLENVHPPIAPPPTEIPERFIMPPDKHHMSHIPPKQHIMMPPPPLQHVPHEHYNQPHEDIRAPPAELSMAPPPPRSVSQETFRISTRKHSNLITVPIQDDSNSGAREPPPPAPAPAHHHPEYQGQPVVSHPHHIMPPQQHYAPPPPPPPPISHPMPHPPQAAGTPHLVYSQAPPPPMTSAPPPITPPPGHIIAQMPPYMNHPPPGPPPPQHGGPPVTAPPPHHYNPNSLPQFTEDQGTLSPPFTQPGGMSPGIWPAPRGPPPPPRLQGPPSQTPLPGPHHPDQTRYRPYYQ
Chain of HAKAI;WTAP;VIRMA (Homo sapiens;Homo sapiens;Homo sapiens) (Q15007 whole entry, chain 2 of 3): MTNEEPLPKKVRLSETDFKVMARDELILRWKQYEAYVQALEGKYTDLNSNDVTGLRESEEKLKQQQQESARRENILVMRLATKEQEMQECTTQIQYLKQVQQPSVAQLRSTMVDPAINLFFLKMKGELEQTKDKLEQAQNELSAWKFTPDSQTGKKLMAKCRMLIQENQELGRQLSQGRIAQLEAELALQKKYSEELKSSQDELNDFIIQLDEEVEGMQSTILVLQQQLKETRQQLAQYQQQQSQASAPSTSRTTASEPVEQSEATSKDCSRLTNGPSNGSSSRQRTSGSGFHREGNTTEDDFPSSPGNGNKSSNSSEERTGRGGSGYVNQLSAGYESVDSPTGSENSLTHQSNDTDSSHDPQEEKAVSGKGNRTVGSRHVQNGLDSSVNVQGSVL
Chain of HAKAI;WTAP;VIRMA (Homo sapiens;Homo sapiens;Homo sapiens) (Q69YN4 whole entry, chain 3 of 3): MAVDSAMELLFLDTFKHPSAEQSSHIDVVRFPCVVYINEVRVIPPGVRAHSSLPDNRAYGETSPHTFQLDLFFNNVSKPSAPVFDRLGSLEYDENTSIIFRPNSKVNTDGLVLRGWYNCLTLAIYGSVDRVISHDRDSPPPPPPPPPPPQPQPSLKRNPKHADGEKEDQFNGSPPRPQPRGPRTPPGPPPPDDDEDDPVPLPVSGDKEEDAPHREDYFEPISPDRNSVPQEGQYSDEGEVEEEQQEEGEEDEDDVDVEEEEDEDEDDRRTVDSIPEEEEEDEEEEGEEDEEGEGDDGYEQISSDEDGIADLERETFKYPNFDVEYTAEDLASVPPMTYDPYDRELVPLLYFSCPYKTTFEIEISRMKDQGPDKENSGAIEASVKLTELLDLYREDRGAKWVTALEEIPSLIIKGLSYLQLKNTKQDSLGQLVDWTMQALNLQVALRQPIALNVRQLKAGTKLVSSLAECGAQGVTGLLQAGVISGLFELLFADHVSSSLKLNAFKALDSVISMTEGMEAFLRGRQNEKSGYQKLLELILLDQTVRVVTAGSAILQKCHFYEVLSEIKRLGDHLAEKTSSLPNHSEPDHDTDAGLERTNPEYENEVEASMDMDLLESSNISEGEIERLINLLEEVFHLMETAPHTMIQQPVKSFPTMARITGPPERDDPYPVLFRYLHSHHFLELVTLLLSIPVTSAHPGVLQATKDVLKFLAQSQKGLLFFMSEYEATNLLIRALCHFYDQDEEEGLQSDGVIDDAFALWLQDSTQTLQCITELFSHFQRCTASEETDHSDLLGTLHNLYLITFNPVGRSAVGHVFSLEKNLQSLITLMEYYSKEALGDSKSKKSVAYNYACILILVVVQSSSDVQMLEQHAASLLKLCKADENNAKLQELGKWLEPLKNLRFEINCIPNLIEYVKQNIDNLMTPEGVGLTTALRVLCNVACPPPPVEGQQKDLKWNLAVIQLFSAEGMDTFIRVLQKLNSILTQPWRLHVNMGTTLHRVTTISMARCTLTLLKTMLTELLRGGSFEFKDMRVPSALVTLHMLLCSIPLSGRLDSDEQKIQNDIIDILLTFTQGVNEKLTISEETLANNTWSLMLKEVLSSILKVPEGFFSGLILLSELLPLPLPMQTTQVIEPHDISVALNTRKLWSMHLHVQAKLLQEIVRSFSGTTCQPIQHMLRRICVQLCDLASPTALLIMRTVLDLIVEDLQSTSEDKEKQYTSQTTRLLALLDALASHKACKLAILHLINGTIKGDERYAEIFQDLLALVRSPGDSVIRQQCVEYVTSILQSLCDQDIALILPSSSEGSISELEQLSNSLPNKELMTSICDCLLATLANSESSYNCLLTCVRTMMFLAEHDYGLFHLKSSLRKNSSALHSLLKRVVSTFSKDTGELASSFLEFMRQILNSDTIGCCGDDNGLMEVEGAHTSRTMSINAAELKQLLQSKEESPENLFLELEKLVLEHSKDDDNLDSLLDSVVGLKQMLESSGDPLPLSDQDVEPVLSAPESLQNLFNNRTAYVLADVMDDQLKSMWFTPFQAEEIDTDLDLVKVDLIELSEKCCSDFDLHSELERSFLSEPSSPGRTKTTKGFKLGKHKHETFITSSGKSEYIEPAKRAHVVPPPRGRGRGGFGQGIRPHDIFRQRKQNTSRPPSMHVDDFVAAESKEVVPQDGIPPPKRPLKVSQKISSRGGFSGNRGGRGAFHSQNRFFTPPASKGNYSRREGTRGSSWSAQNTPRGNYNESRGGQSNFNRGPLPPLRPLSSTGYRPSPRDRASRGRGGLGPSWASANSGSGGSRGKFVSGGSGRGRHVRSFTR

Chain of HAKAI;WTAP;VIRMA;ZC3H13 (1106-1668) (Homo sapiens;Homo sapiens;Homo sapiens;Homo sapiens) (Q75N03 whole entry, chain 1 of 4): as the sequence (Q75N03 whole entry, chain 1 of 3) above
Chain of HAKAI;WTAP;VIRMA;ZC3H13 (1106-1668) (Homo sapiens;Homo sapiens;Homo sapiens;Homo sapiens) (Q15007 whole entry, chain 2 of 4): as the sequence (Q15007 whole entry, chain 2 of 3) above
Chain of HAKAI;WTAP;VIRMA;ZC3H13 (1106-1668) (Homo sapiens;Homo sapiens;Homo sapiens;Homo sapiens) (Q69YN4 whole entry, chain 3 of 4): as the sequence (Q69YN4 whole entry, chain 3 of 3) above
Chain of HAKAI;WTAP;VIRMA;ZC3H13 (1106-1668) (Homo sapiens;Homo sapiens;Homo sapiens;Homo sapiens) (Q5T200 1106-1668, chain 4 of 4): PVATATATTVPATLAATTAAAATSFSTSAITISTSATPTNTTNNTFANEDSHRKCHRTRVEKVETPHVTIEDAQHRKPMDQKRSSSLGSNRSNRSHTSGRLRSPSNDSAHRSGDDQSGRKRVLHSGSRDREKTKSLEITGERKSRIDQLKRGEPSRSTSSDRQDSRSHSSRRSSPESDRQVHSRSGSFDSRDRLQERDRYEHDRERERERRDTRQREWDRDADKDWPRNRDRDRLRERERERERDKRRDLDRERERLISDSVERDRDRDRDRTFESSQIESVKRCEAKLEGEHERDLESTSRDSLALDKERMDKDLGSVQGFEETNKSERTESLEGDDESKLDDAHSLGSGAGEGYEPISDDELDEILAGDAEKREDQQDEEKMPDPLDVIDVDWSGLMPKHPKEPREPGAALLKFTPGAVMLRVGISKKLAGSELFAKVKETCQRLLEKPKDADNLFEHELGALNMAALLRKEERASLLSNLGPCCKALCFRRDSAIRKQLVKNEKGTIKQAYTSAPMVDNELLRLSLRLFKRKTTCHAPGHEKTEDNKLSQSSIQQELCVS
Chain of WTAP;VIRMA;ZC3H13 (1106-1668) (Homo sapiens;Homo sapiens;Homo sapiens) (Q15007 whole entry, chain 1 of 3): as the sequence (Q15007 whole entry, chain 2 of 3) above
Chain of WTAP;VIRMA;ZC3H13 (1106-1668) (Homo sapiens;Homo sapiens;Homo sapiens) (Q69YN4 whole entry, chain 2 of 3): as the sequence (Q69YN4 whole entry, chain 3 of 3) above
Chain of WTAP;VIRMA;ZC3H13 (1106-1668) (Homo sapiens;Homo sapiens;Homo sapiens) (Q5T200 1106-1668, chain 3 of 3): as the sequence (Q5T200 1106-1668, chain 4 of 4) above
Chain of WTAP;VIRMA (Homo sapiens;Homo sapiens) (Q15007 whole entry, chain 1 of 2): as the sequence (Q15007 whole entry, chain 2 of 3) above
Chain of WTAP;VIRMA (Homo sapiens;Homo sapiens) (Q69YN4 whole entry, chain 2 of 2): as the sequence (Q69YN4 whole entry, chain 3 of 3) above

Regarding “GGCCCCUCCAUCGUCCACCGCAAAUGCUUCUAGGCGGACUAUGACUUAGUUGCGUUACACCCUUUCUUGACAAAACCUAACUUGCACAGAAAACA [ACTB-1 RNA]”, the equilibrium dissociation constant (Kd) in series [1] came out at 214 nM; in series [2], 826 nM; in series [3], 256 nM; in series [4] it was 563 nM.

One may read the Kd as the equilibrium constant for the complex coming apart. Higher therefore signals lower affinity.
